According to patent US20100107264A1:
Where “and” joins values, the source holds several entries; their conditions need not be identical. Identical values can stand only once.

Target: M144 mutant NS1A protein (L-to-A substitution at position 144) (influenza A/Udorn/72 virus) (UniProt P03495)

With “GST-F2F3 (GST fusion of CPSF30 amino acids 61-121, second and third zinc fingers)” the percent of wild-type binding (% of wild-type binding) was 5 and 10.
